Target: T1, SWELL1 (LRRC8a, Leucine-Rich Repeat Containing Protein 8a), Q80WG5
T1 chain: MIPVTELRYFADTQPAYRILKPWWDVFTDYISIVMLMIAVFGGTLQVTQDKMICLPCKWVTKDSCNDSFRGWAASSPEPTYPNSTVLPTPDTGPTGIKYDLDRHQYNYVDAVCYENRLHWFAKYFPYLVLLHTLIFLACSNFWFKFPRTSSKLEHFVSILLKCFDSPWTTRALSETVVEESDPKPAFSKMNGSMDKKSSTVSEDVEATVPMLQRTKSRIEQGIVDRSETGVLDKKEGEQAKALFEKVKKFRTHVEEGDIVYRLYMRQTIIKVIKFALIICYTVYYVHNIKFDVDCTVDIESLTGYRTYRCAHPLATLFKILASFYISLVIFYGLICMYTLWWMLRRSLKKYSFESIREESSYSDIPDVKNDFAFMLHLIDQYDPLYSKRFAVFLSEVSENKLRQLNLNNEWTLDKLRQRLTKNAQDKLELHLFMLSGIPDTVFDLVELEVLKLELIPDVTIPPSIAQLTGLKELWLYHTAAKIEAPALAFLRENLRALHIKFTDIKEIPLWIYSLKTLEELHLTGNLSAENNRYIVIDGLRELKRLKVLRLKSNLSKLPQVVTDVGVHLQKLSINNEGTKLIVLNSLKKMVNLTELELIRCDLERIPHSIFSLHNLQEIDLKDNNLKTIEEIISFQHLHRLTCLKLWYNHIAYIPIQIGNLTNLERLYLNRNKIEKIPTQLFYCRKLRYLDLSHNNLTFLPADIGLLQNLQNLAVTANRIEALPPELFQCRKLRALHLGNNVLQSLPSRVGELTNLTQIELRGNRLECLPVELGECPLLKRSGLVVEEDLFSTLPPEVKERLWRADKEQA
Assay: cryo-EM structure
Conditions: remark: other sources report otherwise

stoichiometry N: 6
B1: SWELL1 (LRRC8a, Leucine-Rich Repeat Containing Protein 8a), Q80WG5 1-810 (natural protein)
chain: T1 chain
